# Laboratory results as given in patent US9688743B2, “Optical biosensors” (Carnegie Mellon University, priority 2007, dated 2017).
# B1: HL2-TO1: fluorogen binding scFv, SEQ ID NO: 5 (protein)
# scFv: QVQLQQGGAGLLKPSETLSLTCGVYGGSFSGYYWSWIRQSPGKGLEWIGEINHSGSANYNPSVKSRVTISVDTSKNQFSLQLSSVTAADTAVYYCARDRAVLTGEGWYFDLWGRGTLVTVSSGILGSGGGGSGGGGSGGGGSSYELTQPPSVSVSPGQTASITCSGDKLGDKYTCWYQQKPGQSPVLVLYEDTKRPSGIPERFSGSNSGNTATLTISRVEAGDEADYYCQLWDSSSDHYVFGSGTKLTVL
# modifications: scFv sequence
# B2: HL1.0.1-TO1: affinity matured fluorogen binding scFv, SEQ ID NO: 7 (protein)
# scFv: QVQLVESEAEVKKPGSSVKVSCKASGGTFSSYAISWVRQAPGQGLEWMGGTIPIFGTADYAQEFQGRVTITTDESTSTAYMELSGLRSEDTAVYYCVLLGTTMVTGHYFDYWGQGTLVTVSSGILGSGGGGSGGGGSGGGGSNFMLTQPPSASGTPGQSVTISCSGSGSNIGNNKVNWYQQLPGTAPKLLIYSNNQRPSGVPDRFSGSKSGTSASLAISGLQSEDEADYYCAAWDDGLSGYVFGTGTKLTVL
# modifications: scFv sequence
# B3: HL4-MG: malachite green binding scFv, SEQ ID NO: 11 (protein)
# scFv: QVQLVESEGGLVQPGGSLRLSCAASGFTFSSYEMNWVRQAPGKGLEWVSRIDGDGSSTNYADSVKGRFTISRDNAKSTLYLQMNSLRAEDTAVYYCTRARYFGSVSPYGMDVWGQGTTVTVSSGILGSGGGGSGGGGSGGGGSDIRVTQSPSSVSASVGDRVTISCRASQGIATWLGWYQQKPGKPPQLLIYSASTLQTGVPSRFSGSGSGTDFTLTISSLQPEDVATYYCQEGSTFPLTFGGGTKVDIKSGILEQKLISEEDL
# modifications: scFv sequence, (GILEQKLISEEDL at end of sequence is derived from a vector)
# B4: L5-MG: malachite green binding light chain only FBP, SEQ ID NO: 13 (antibody)
# VL: SASTGSFDSWGQGTLVTVSSGILGSGGGGSGGGGSGGGGSQAVVTQEPSVTVSPGGTVILTCGSSTGAVTSGHYANWFQQKPGQAPRALIFETDKKYSWTPGRFSGSLLGAKAALTISDAQPEDEAEYYCLLSDVDGYLFGGGTQLTVLSGILEQKLISEEDL
# modifications: scFv sequence, (GILEQKLISEEDL at end of sequence is derived from a vector)
# B5: HO PNL6: scFv1 heavy chain only, vector pPNL6, displayed on yeast (antibody, V domains shown)
# VH: QVQLVESEAEVKKPGSSVKVSCKASGGTFSSYAISWVRQAPGQGLEWMGGIIPIFGTANYAQKFQGRVTITADESTSTAYMELSSLRSEDTAVYYCVLLDTTMVTGYYFDYWGQGTLVTVSS
# B6: HO PNL6URA3: scFv1 heavy chain only, vector pPNL6URA3, displayed on yeast (antibody, V domains shown)
# VH: B5 VH
# Columns and labels:
# [1] = Fluorogen binding affinity to yeast surface displayed FBPs (TO1-2p)
# Method: Cell surface KD values were determined on Prism Graphpad Prism 4.0 software by non-linear regression analysis using a one-site binding algorithm for saturation binding: Y═Bmax*X═(KD+X) where X is the concentration of fluorogen. Determination of Fluorogen Binding Affinity to Soluble FBPs
# [2] = Spectral characterization of yeast surface displayed FBPs (TO1-2p); format: physicochemical; settings: cell surface; for excitation maximum: free dye absorbance 504 nm
# Method: 10^6 cells in 200 μl yeast buffer were assayed with 100-1000 nM MG-2p or TO1-2p. Spectra were corrected by subtraction of fluorescence of control cells not expressing scFvs.
# [3] = Fluorogen binding affinity to soluble FBPs (TO1-2p); settings: soluble FBP, in words
# Method: (§1) Binding affinity to soluble scFvs was determined by monitoring fluorogenic signal under conditions of ligand depletion using a homogenous 96 well microplate assay similar to above. 1 nM HL1.0.1-TO1, 10 nM L5-MG and 100 nM HL4-MG were each assayed with a 0.1 to 1000 nM range of fluorogen. Fluorescence of each FBP+dye sample was corrected by subtracting the fluorescence of a dye only sample. KD values were determined by non-linear regression using Graphpad Prism 4.0 and a ligand depletion algorithm. Y═(X+KD+R−√{square root over ((−X−KD−R)^2−4*X*R)})÷2 where X is the concentration of fluorogen, and R is the concentration of FBP/fluorogencomplex at the observed or extrapolated plateau at maximum fluorescence. Determination of Quantum Yields
# [4] = Quantum yield and absorbance of FBP/TO1-2p complex; format: physicochemical
# Method: (§2) FIG. 15 provides graphs illustrating absorbance of fluorogens and FBP/fluorogen complexes. Shown are samples used in quantum yield determinations. The absorbance of FBP/fluorogen complexes is obtained on a dual beam PerkinElmer Lambda 45 spectrophotometer using an equal concentration of FBP without fluorogen as the reference.
# (§3) Quantum yields were determined by comparing integrated spectra of FBP/fluorogen complexes with those of reference dyes. Corrected emission spectra were taken at concentrations of FBP/fluorogen complex and reference dyes giving similar absorbances at the excitation wavelength, and the intensity integral computed. Provisional quantum yields were calculated by the relation:
# (§4) [formula] where (phi is the quantum yield, I is the integrated intensity, A is the absorbance, η is the refractive index, and R designates the reference dye. Provisional quantum yields were adjusted to 1:1 complexation by using the solution KD of the complex to quantify the proportional occupancy at these concentrations (using Graphpad Prism 4.0 and the above ligand depletion algorithm).
# A cyanic dye, Cy5.18 in PBS and Di-S—C2-(5) in MeOH were used as reference fluorophores for the determination of HL4-MG/MG-2p and L5-MG/MG-2p quantum yields. […] These differences in absorbance magnitude underrepresent actual differences because of incomplete complexation at these concentrations. […]
# [5] = Fluorogenic enhancement of purified FBP (TO1-2p); format: biochemical; settings: direct measurement
# Method: (§5) Fluorogenic enhancement of HL4-MG, L5-MG and HL1.0.1-TO1 was measured in 96 well microplates on a Tecan Safire2 reader by comparison of the fluorescence of 500 nM free fluorogen with the fluorescence of a mixture of 500 nM fluorogen and 2 μM respective FBP. After a 1 hour incubation to allow complex formation, fluorescence was measured at the excitation and emission maxima of the fluorogen/FBP complexes. Fluorescence of yeast PBS buffer was subtracted from all samples. Fluorescence readings were stable for at least 16 hours.
# (§6) Extended gain settings were used to increase numerical accuracy. For HL4-MG and L5MG, the differences in fluorescence between complexes and free dye exceeded the extended gain range of the instrument, so intermediate concentrations of Cy5 were also measured to allow interpolation between the extreme values. Two independent experiments, each with triplicate measurements, were carried out for each of the 3 FBPS; standard deviations for averaged values of FBPS, free fluorogen or PBS were less than 5%. The fold-enhancement values for HL4-MG and L5-MG were respectively multiplied by 1.35 and 1.20 to correct for partial complexation.
# [6] = Fluorogen binding affinity to soluble FBPs (MG-2p); settings: soluble versus yeast surface displayed FBP
# Method: as §1
# [7] = Quantum yield and absorbance of FBP/MG-2p complex; format: physicochemical
# Method: as §2, §3, §4
# A cyanic dye, Cy5.18 in PBS and Di-S—C2-(5) in MeOH were used as reference fluorophores for the determination of HL4-MG/MG-2p and L5-MG/MG-2p quantum yields. 2 μM scFv and 440 nM MG-2p were employed; emission spectra of respective complexes were taken in duplicate. […] These differences in absorbance magnitude underrepresent actual differences because of incomplete complexation at these concentrations. HL4MG/MG-2p and L5-MG/MG-2p quantum yields were respectively multiplied by 1.35 and 1.20 to correct for incomplete complexation. Fluorescein in 0.1 N NaOH and Rhodamine-6-G in MeOH were used as reference fluorophores for the determination of the quantum yield of HL1.0.1-TO1/TO12p. At the employed concentrations of 2 μM scFv and 520 nM TO1-2p, virtually complete complexation is expected, and no correction was used. Only slight changes in absorbance magnitude were noted.
# [8] = Fluorogenic enhancement of purified FBP (MG-2p); format: biochemical; settings: HL4-MG/MG-2p complex
# Method: as §5, §6
# [9] = Cell surface complementation, flow cytometry of TO1-2p fluorescence; format: cell-based; settings: 1 μM TO1-2P, induced JAR200 yeast, emission at 530
# Method: In the following experiments three classes of yeast cells were generated by molecular biology methods known in the art. One class of yeast expressed only the heavy chain of the scFv on the surface. A second class expressed only the light chain of the scFv on its surface. The third class expressed both the heavy and light chains on the surface. When the fluorescent reporter TO1 was added independently to solutions containing the three classes of yeast cells, only the third class that expressed both heavy and light chains at a high surface density produced a fluorescence increase, as shown below. Specifically, two vectors, pPNL6 and pPNL6URA3 were prepared, where the TRP1 gene of pPNL6 was replaced with the URA3 gene of S. cerevisiae. This approach allowed selection for both plasmids in a single cell. Fragments carrying scFv1, scFv1 HO (heavy only chain), or scFv1 LO (light only chain) were cloned into each of the two vectors. […]
# In the first approach, flow cytometry was used to assay cellular fluorescence of the three classes of yeast in the presence and absence of TO 1. The population of induced cells was analyzed by measuring fluorescence emitted at 685 from a signal caused by protein labeled by anti-C-myc Alexa 647. […] For cells that expressed full length fragments the TO1-2p fluorescence was observed as emission at 530.
# [10] = Cell surface complementation, fluorescence spectrometer on cell suspensions; format: cell-based, yeast; settings: for Fluorescence: 1 μM TO1-2P, excitation 506 nm, emission 610 nm, corrected for buffer+dye and no-dye samples
# Method: In the following experiments three classes of yeast cells were generated by molecular biology methods known in the art. One class of yeast expressed only the heavy chain of the scFv on the surface. A second class expressed only the light chain of the scFv on its surface. The third class expressed both the heavy and light chains on the surface. When the fluorescent reporter TO1 was added independently to solutions containing the three classes of yeast cells, only the third class that expressed both heavy and light chains at a high surface density produced a fluorescence increase, as shown below. Specifically, two vectors, pPNL6 and pPNL6URA3 were prepared, where the TRP1 gene of pPNL6 was replaced with the URA3 gene of S. cerevisiae. This approach allowed selection for both plasmids in a single cell. Fragments carrying scFv1, scFv1 HO (heavy only chain), or scFv1 LO (light only chain) were cloned into each of the two vectors.
# JAR200 yeast cells were transformed with each single plasmid as well as both scFv1 HO (PNL6)+scFv1 LO (PNL6URA3) or both scFv1 HO (PNL6URA3)+scFv1 LO (PNL6). Analysis by FACS and TECAN followed induction of the cells. In both cases, 1 μM TO1-2P was used.
# In the second approach, a fluorescence spectrometer was used to quantify the fluorescence from suspensions of cells. The fluorescence excitation wavelength was 506 nm and the emission wavelength was 610 nm. Values presented below are corrected from raw data by subtracting out the values for (buffer+dye) and induced (no dye) samples. They were then corrected for the per cent of the population that was induced, as determined by the flow cytometry analysis.
molecule,measurement,setting,value
B1,dissociation constants,"[1]; yeast surface displayed FBP, TO1-2p, in words",high nanomolar range
same,emission maxima,[2],550 nm
same,excitation maximum,[2],515 nm
B2,KD in solution,[3],very similar to that observed on the cell surface
same,extinction coefficient,[4],"60,000 M^−1 cm^−1"
same,quantum yield,[4],0.47
same,fluorescence increase of TO1-2p upon binding,[5],"about 2,600 fold"
same,Kd,"[1]; yeast cell surface displayed FBP, fluorogen TO1-2p",~3 nM
same,emission maxima,[2],530 nm
same,excitation maximum,[2],509 nm
B3,reduced affinity for MG-2p in solution as compared to surface display,[6],185 fold
same,absorbance of FBP/fluorogen relative to free MG-2p,[7],more than 1.4 fold
same,extinction coefficient,[7],"about 105,000 M^−1 cm^−1"
same,quantum yield,[7],0.17
same,fluorescence enhancement as compared to free fluorogen,[8],"about 18,000 fold"
B4,reduced affinity for MG-2p in solution as compared to surface display,[6],265 fold
B5,MEAN 530 SIGNAL,[9],88
same,Fluorescence,[10],135
same,F/ (% Pop IND),[10]; fluorescence corrected for per cent of population induced,160
B6,MEAN 530 SIGNAL,[9],82
same,Fluorescence,[10],−605
